The test deals with nDARC(Y)-Fc: N-terminal 60 residues of human DARC (FyB) with tyrosine at position 41, fused to the Fc region of human IgG1 (human) (UniProt Q16570). The experiment in a line: BLI; nDARC(Y)-Fc immobilised via its Fc on Anti-human IgG Fc Capture biosensors (20 ug/ml, 600 s); PvDBPII 1-120 nM; 25 C; PBS with 1 mg/ml BSA; reference biosensors with human IgG1 Fc subtracted; 1:2 binding model and steady-state analysis; mean of two experiments.

Drawing on PMC10457348, this text covers Kd for 2 substances.

On to “Recombinant Plasmodium vivax Duffy Binding Protein region II, variant PvW1 (PvDBPII PvW1) (from UniProt P22290 211-525) (domain or fragment)”, for which the Kd – broadly, the equilibrium constant for the complex coming apart – worked out at 12 nM.
On to “Recombinant Plasmodium vivax Duffy Binding Protein region II, variant Salvador I (PvDBPII SalI) (from UniProt P22290 211-525) (domain or fragment)”, for which the Kd is 8.8 nM.
